Experimental data: paper PMC5034325

Molecular target: human taste receptor T1R2-T1R3 (human) (UniProt Q8TE23)
Chain of UniProt Q8TE23 (Q8TE23 20-839, chain 1 of 2): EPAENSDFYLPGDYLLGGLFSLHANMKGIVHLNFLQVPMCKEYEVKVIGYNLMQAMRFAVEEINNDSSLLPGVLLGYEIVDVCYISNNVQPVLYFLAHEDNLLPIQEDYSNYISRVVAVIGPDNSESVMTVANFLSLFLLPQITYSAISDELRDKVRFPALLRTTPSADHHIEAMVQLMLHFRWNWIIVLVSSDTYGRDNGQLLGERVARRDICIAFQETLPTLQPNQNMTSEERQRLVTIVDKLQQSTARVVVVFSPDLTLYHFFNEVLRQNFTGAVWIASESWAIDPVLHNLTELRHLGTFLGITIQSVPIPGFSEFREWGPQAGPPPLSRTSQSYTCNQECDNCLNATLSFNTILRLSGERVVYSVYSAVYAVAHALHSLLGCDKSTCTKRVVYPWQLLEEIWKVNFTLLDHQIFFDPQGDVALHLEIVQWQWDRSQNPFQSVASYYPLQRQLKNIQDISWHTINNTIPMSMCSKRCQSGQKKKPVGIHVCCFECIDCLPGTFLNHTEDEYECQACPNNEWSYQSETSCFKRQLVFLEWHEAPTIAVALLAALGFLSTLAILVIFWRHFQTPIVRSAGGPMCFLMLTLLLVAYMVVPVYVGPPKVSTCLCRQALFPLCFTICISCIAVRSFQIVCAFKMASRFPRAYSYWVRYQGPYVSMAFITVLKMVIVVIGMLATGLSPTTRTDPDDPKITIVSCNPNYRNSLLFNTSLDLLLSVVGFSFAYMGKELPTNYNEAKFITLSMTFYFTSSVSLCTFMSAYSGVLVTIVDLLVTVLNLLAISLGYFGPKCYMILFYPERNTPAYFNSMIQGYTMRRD
Chain of UniProt Q8TE23 (Q7RTX0 21-852, chain 2 of 2, further chain): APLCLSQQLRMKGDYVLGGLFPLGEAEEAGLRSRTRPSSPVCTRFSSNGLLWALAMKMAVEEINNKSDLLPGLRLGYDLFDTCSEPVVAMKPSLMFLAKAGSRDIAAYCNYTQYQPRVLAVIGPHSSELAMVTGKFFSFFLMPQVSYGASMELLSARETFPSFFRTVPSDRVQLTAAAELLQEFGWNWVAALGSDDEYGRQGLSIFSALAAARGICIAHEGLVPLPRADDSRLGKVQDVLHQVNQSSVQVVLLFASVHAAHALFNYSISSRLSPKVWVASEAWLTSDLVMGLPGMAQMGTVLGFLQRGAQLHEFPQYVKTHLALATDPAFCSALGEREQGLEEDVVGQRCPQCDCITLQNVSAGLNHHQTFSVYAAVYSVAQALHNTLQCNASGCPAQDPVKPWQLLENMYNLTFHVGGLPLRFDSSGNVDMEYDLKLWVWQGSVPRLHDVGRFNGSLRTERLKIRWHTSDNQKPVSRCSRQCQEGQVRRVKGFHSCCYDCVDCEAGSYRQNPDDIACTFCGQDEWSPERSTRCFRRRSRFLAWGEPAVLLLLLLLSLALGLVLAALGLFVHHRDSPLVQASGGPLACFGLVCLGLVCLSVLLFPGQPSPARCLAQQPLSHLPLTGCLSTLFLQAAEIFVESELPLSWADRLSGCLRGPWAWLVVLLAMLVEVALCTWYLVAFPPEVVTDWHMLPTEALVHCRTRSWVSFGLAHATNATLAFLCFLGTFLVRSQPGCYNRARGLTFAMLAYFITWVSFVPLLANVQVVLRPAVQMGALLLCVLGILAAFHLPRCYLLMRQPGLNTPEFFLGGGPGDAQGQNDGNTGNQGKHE

“C41S, Y65R, S67K, D68N-MNEI (Mut1) (ligand)” gave a sweetness threshold, triangle test by a panel of tasters, 5 to 500 nM (also printed as 2.50 mg/L) of 223 nM.

“E23Q, Q28K, C41S, Y65R-MNEI (Mut3) (ligand)” was tested, and the sweetness threshold, triangle test by a panel of tasters, 5 to 500 nM (also printed as 0.28 mg/L) was 25 nM.

Q28K, C41S, Y65R-MNEI (Mut2) (ligand) was tested, and the sweetness threshold, triangle test by a panel of tasters, 5 to 500 nM (also printed as 0.40 mg/L) was 36 nM.

In the case of Y65R-MNEI (ligand), the sweetness threshold, triangle test by a panel of tasters, 5 to 500 nM (also printed as 0.62 mg/L) is reported as 55 nM.
